Target: human C1q (R&D Systems) (human) (UniProt P02745)
Assay: C1q ELISA, absorbance at 450 nm

UniProt P02745, sequence (P02745 23-245 limits assumed, chain 1 of 3): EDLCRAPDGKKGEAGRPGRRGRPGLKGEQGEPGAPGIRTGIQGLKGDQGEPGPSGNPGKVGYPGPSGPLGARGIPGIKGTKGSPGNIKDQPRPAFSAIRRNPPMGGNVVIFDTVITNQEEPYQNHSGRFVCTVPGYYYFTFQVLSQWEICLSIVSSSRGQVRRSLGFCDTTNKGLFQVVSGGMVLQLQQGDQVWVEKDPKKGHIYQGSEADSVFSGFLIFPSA
UniProt P02745, sequence (P02746 28-253 limits assumed, chain 2 of 3, further chain): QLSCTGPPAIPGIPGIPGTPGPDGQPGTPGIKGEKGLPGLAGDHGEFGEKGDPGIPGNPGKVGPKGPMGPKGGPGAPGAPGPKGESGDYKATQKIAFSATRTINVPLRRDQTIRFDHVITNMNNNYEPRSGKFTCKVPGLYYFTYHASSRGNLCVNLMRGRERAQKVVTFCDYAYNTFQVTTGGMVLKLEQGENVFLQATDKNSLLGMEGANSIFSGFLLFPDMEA
UniProt P02745, sequence (P02747 29-245 limits assumed, chain 3 of 3, further chain): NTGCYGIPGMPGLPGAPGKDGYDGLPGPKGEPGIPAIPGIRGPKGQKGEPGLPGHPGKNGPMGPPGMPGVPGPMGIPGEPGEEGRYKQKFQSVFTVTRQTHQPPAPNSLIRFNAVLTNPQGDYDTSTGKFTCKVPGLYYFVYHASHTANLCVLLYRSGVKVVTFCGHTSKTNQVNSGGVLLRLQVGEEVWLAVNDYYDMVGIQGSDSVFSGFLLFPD

dCysG1Fc (recombinant aglycosylated IgG1 Fc derivative, twelve amino acid deletion at the amino terminus of the native hinge region) (from UniProt P01857 111-330)
fold reduction of complement activity (C1q ELISA) against the glycosylated Fc fragment: 2 times

— patent US20090053246A1
